From the domain aggregation screens of Martell et al. (2025)

Experiment: soluble fraction after stress (log2 fold change); higher = more stays soluble; pooled small domains, quantitative proteomics
Settings: stress: 75 degC
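Further: 20 min heating vs room temperature control held 20 min.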

HMNVNVSFTQLRHKAEHAIQAKNWSEARNLLTLATLMRPTHRNVARRLKAVEQRNRLFRRLLLILTHRKV
soluble fraction (log2): -0.429

HMNVPFGFDEVNGKLVKNEEEQAIISEIKSLKNKGLSLRKIAEALNGRGIATKNGKAWTAVQIQRIA
soluble fraction (log2): -0.318

HMNVPLYIMIESAVEQRLLDGTYQVGKMIPTEFELMDEFSVSRETVRKAINLLVQRGKLEKKRGIGTFVAS
soluble fraction (log2): -3.28

HMNVSDIENKLNEMLSPLEKKVMVLYLEGKSYVEIGELLGRHTKSVDNALQRVKRKLEIYLKNRK
soluble fraction (log2): -2.62

HMNVTIGESIKNVINHYGTPIYSYNPNNQEKYYEFHTNKGVLVVTAIGKKNTGYVTRVSMTY
soluble fraction (log2): -1.04

HMNVVDTGTDANYRVKISAVNLNMRLGPSTSYKSKGYITPGNYTIIKTSGDWGKVKETGYWVALKYTSKIN
soluble fraction (log2): -3.16

HMNVVINNELVSLMVEAMKDGVSSKSIQEEFEGYKISGKTITKKVLTAHVNKALEVFADMQE
soluble fraction (log2): -0.582

HMNYDPEEKITQIRTMLEIHSRIEFNEIITPATRRGEIIIIFLALLHMIKRGYIVVRQHRLFGDITIFARD
soluble fraction (log2): 0.0974

HMNYKDQISRYFQQAFHIYPKYQTMKNEEGNFTSKIFKDDKMIIEGVGKSKKKAEQDVSRKALIHFNVL
soluble fraction (log2): -0.376

HMNYKNAIGQVGSVYVPIPPNREGLGQIEVKVQSRVSTVRAVSDHSERLENRVAVRVIELVDDRTLLVEKL
soluble fraction (log2): -1.15

HMNYTSEDIKLASELFFHLLNNRILPANDVLASQYYDNNEIREILENMAEEGGLRIFGTRENLHLVSNGE
soluble fraction (log2): 0.00512

HMNYYDLLGIPKSATKQQIRKAYRTKAKEFHPDVNGPFNSHMHFLLLKQAYETLMDANMRHVYDMALIS
soluble fraction (log2): -2.4

HMPADHYEVLGIARDADAAEVKRAYRRLARESHPDANHGDSGAEVRFKAVSAAYEVLSDPERRARYDRFGH
soluble fraction (log2): 0.0495

HMPANVELLRTFTNKTGTKIKARIVAVSDNKVKLIRDDSKKFIVPIDSLSEEDQKYLKDWIANEVGEQ
soluble fraction (log2): -0.16

HMPARTANEEAIRKYLLNHDSITRKETQALLKTGQSAAGRILKEMVENGWLARIGNGRSTGYELR
soluble fraction (log2): -0.222

HMPATIEGIRLYLSSGLIKGVGEEMASRIVKAFGTDTIRVLDEEPERLLKVRGVGKKSLDRIRTSWAEH
soluble fraction (log2): -0.366

HMPATPDATVQAVQQRLNELGYDVGSADGLMGRGTRSAIIAFQQDRGLAATGVADQALLLQLQP
soluble fraction (log2): 0.105

HMPAWKINQELQATVIATKANQTRLRIEGQTFETQTAIALKPGQSLLIKVVSLEPQISFALI
soluble fraction (log2): -2.45

HMPDFLAELAARMERDAVTEAQIRQVVAQKGHYPEEVSPAQYHPDFFRQWLFPHWEKIVDVIRSSPEYTP
soluble fraction (log2): -0.126

HMPDGTATATASVNVRSGASTLSPVLGVLRVGESIGVTGQANGGWVPVNYNGRAGYVYAAYLSFD
soluble fraction (log2): -0.915

HMPDKIDSAAQGILDKLIRNDGFMAVTDKSPPEAIYKLFGVSKKVFKQAIGSLYKNRLITIEDAGLRIIPQ
soluble fraction (log2): -0.481

HMPDLKIGKDHRLAEYIETKIAEDGYSPGAVLGEIKAKGLEFETEISKPTLYSYIDKGIFLTITNKELPV
soluble fraction (log2): 0.25

HMPDLQKAIDDLLQVVDKRLNTSFESILNEVNSEKEAVAFFLALLEAVRWGFVKASQSDEGIKIEK
soluble fraction (log2): 0.211

HMPDLSAEERNIVEALQKSNDLQVNLIAVKTGMDMGTLSATLFGLEMKGLVKLMAGGTYHLI
soluble fraction (log2): -1.11

HMPDLSEDEEKIVSLLRDNNDLNVNIIVMRTQLPSATVTSSLFSLELKGVVRMYAGGMYHLM
soluble fraction (log2): -3.73

HMPDLSYVDEVLNRYKGHKGTLITVLQQVQAHKGYLEKEALERVARSMGVPTARIYGVVTFYAQFR
soluble fraction (log2): 0.138

HMPDPVHAAYLRLAVLLTEQAIGPQVTEQQIRDRFALTRRQTSDLMGRLIREGIAEKRAGYGWNINTELTA
soluble fraction (log2): -1.16

HMPDVAIMNVSVEPEKKVVRLQVKAISLEALLDFSTRLEAIPARVELQNHTPSKELSQKWAVNATLIVIY
soluble fraction (log2): 0.482

HMPDYYAILEVERTADAKTIKAAYRKLALAYHPDRNPGDQAAEERFKQINEAYAVLSDPEKRARYDRYGSV
soluble fraction (log2): -0.131

HMPEFKDMLKFFRMREHLSQSELAEKLGISASTVSMYEVGRRQPDFETEEKIADFFNTDLNTLRG
soluble fraction (log2): -0.693

HMPEGTYLEKLAIENNNLQLIGLSREASQLVQLLQDAPQWRKVNLTGVLQADGAASGRDRFTMTAELQ
soluble fraction (log2): 0.0999

HMPEKNQITHLIRLIDDRDEFVRKRVREQLIKLGEDAIPFLEMAAKTENLEIQRIASEIIQAIIPRQ
soluble fraction (log2): -0.745

HMPELPPHELLRALMVEHDIKQSELPEVGPQPVVSDVLAGKRALNLRQVAALAARFHVPMEVFT
soluble fraction (log2): -0.161

HMPELSITDADIIVAGGRGMGSAENFGLIRELAGLLGAAVGASRVVVDAEWVDQKHLIGQTGK
soluble fraction (log2): -0.0455

HMPELTASDEADLKALVGGDQGFEQMANWARSNLGEEEINRFDAVVDSNNKDAIHMAIQAMQARMNA
soluble fraction (log2): -0.107

HMPELTERELEVLLLTARGLPSSEAARLLFITRRTVAAHLTSIYGKLGARNKTEAVLAALKRGIIMLDQIG
soluble fraction (log2): -3.99

HMPESYFEMLQKLLETYALPQEGTIYFSAADLARMPQKFEDVIEQTAQKKGGHLVVSKEPKDMDGGFVLV
soluble fraction (log2): -1.83

HMPEVAHTIDMEAVNKHWDELPEREQRILVMRFYGNLTQTEIGERLGISQMHVSRLLARALSHLKSRLLD
soluble fraction (log2): -3.89

HMPEVYPFEVAEDDAGKRLDVFLSEEIEEFTRSFIQKLIAGGLASVNRAPARASYRVKPRDLVELQVPE
soluble fraction (log2): -0.598

HMPFNREYWIEQLLKEVGLMGTPYAELDKHEVELDSPTGRASGFKVNAKTYVDQQLLFIENEYNNQPE
soluble fraction (log2): -0.533

HMPFREGDEVFVELVEPHMYNEDDAVAKLDGYVVAVRGAAGLVGQKVLVRIERVGRSSAEATLVA
soluble fraction (log2): -0.0609

HMPGEIKKIPINSISYQDLKQHPYFDAYLAKQVIKYRETKGRIENIEQFREATRAYQSLIEKVTPYLDFE
soluble fraction (log2): -0.302

HMPGGLSAEDVEKMVEKVLTVNGDVVEEIRSGRDPKGKKIKFLAGLVMRDARGQADAAAVSGILERRLKEG
soluble fraction (log2): 0.0256

HMPGLITLEAAKTTALNHAKLTADQVTFVKQKLDRDDGRQVYEIEFYTSDYKEYDYEIDAVSGLILEVDYD
soluble fraction (log2): -0.866

HMPGLPLWAFSTRGSAIHTGASFRDGDGLLFGPESRGLPDWLLEEVGQDRVLRLPMRPGSRSLNLSNAV
soluble fraction (log2): -0.577

HMPGPAEMPGWITARAKKLGGQITPEAARALAAEMGSDTEQASREIEKLLTYVDYRRPVEEEDVALLTA
soluble fraction (log2): 0.16

HMPGRKTTFEERLSIIEDLIKHDVNYSWAVDKYHVSYQQVYGWYQKYRKSGNDPQSLRDRRGK
soluble fraction (log2): -3.65

HMPGRPSRISDAVKDQIDHDLRKNPRDLGYSQNLWDGKLLSHHLKERYQITLGIRQAQRLFHQLGFRQR
soluble fraction (log2): -0.846

HMPGVLEVDTGGVAAVAYVDGVEVGRVPGELQIAAGTKTLMLKADRYLDYVQSLEIDGLGKRQLLVATLQS
soluble fraction (log2): -0.0797

HMPGVTTQLHRLNGTEETYIIKRGDGVLEIDGEKSELQLGDAIIIPAGASQKISNIGDEDLE
soluble fraction (log2): -0.159

HMPHFFISTSDVNQDIITVSDKENFHHIARVLRSKVGETLLLVDENRTQYKVVIQNIDSKSITTKVVETLK
soluble fraction (log2): -0.925

HMPHFGVVLQMDDWKTLRDRLEARDDIDWVMKPNLRFEGQPGEQATLFIRDPSGNALEFKGFADLSQVF
soluble fraction (log2): -0.116

HMPHSTTDFSVSPDERQIVYSTNLQGRYDLWALDHNQGYPYPLTKKGQMSFFIKHLPGSQMILTGFD
soluble fraction (log2): -0.161

HMPIDQAKRKKEIIQNFGIRKIYKFSEIFDLKFGRDNIIVTFLIILDMIKEGVVEINENKEEIEFEYK
soluble fraction (log2): -0.152

HMPIKYTHKGYTINVSRSKMNGTTFVKVVDPKGQVIQQSQDNRIQDVNQLVTTMKQYIDTLKPS
soluble fraction (log2): -0.274
